In article PMC6908968 (Cell, 2019):
Substitutions are numbered along the chain they refer to.

T1: thermolysin-cleaved EBOV GP on Jurkat-GP cells (cleaved GP) (Zaire ebolavirus, Makona (GP1 core …, strain))
T1 chain 1: not shown
T1 chain 2: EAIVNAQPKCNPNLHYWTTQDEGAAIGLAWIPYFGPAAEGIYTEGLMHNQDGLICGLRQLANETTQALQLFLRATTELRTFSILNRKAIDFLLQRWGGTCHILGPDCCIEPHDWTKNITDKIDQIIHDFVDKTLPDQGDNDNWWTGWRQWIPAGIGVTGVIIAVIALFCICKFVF

B1: 5.6.c2828 (antibody, V domains shown)
VH: EVQLVQSGAEVKKPGESLRISCKGSGYSFTKYWISWVRQMPGKGLEWMGRIDPSDSSTNYSPSFQGHVTISDDKSTSIVYLQWSSLKASDTAMYYCARHSWVQNSAYDPQMISYDHYYGMDVWGQGTTVTVSS
VL: ENVLTQSPGTLSLSPGERATLSCRASQSVSSSYLAWYQQKPGQAPRLLIYGASSRATGIPDRFSGSGSGTDFTLTISRLEPGDFAVYYCHQYGSSPLTFGQGTRLEMK
B2: 5.6.c2961 (antibody, V domains shown)
VH: QVQLQESGPGLVKPSQTLSLTCTVSGDSISSGDYYWNWIRHHPGKGLEWLGYIYYSGSSDYNPSLKSRVTISVDTSKNHFSLKLSSVTAADTAIYYCARGSVSVLFGELDVWGQGTTVTVSS
VL: EIVLTQSPGTLSLSPGERATLSCRASQSVSNNFLAWYQQIRGQAPRLLIYGVSHRATGIPDRFSGSGSGTDFTLTISGLEPEDFALYYCQQYGRSPYTFGQGTRLEIK
B3: 5.6.c3027 (antibody, V domains shown)
VH: QVQLVESGGGVVQPGRSLRLSCAASGFSFNNYGMHWVRQAPGKGLEWVAHIYFDGNYKFYIDSVKGRFTISRDNAKYTLYLQMNSLRVEDTAVYYCARDVRDGDDIFSGYHYGMDVWGQGTTVTVSS
VL: DIQMTQSPSSVSASVGDRVSITCRASQGFTNWLAWYQQKPGKAPKLVIYAASSLQSGVPSRFSGSGSGTNFTLTISSLQPEDFATYYCQQANSFPLTFGGGTKVDVK
B4: 5.6.c3023 (antibody, V domains shown)
VH: QVQLVESGGGVVQPGRSLRLSCAASGFTFRTYGLHWVRQAPGKGLEWVAFISNDGSSKYNVDSVKGRFTISRDNPKNTLYLQMNSLRTEDTAVYYCAKDTISVAIYGHFDTWGQGTLVTVSS
VL: DVVMTQSPLSLPVTLGQPASISCRSSQSLVKSDGNTYLNWFQQRPGQSPRRLIYKVSTRDTGVPDRFSGSGSGTDFTLKISRVEAEDVAVYYCMQATHWPITFGGGTTVEIK
B5: 5.6.c3013 (antibody, V domains shown)
VH: QVQLVQSGAEVKKPGASVKVSCKASGYTFTKYGISWMRQAPGQGLEWMGWISAYNGDTNYAQKLHGRLTMTTDTSTSTVYMELRSLRSDDTAIYYCARDLGELSSLKFYGMDVWGQGTTVTVSS
VL: DIQLTQSPSFLSASVGDRVTITCRASQGISSFLAWYQQKPGKAPKILVYGASTLQSGVPSRFSGSGSGTEFTLTISSLQPEDFATYYCQQVNTFPFTFGPGTQVDFK
B6: 5.6.c3021 (antibody, V domains shown)
VH: QLHLQESGPGLVKPSETLSLTCTVSGGSINHDYYWGWIRQPPGKGLEWIGTIYYSGNSYYNPSLKSRVTISVDTSKNQFSLKLSSVTAADTAVYYCARSEEDSVFGVLKGLAFDIWGQGTMVTVSS
VL: QSVLTQPPSVSGAPGQRVTISCTGSSSNIGAGYDVHWYQQPPGRAPKLLIYGNSNRASGVPDRFSGSKSGTSASLAITGLQAEDEADYYCQSYDSSLSGSVFGGGTKLTVL
B7: 5.6.c2866 (antibody, V domains shown)
VH: QVQLVQSGAEVKKPGSSVKVSCKASGGTLSSYAISWVRQAPGQGLEWMGRIIPTLGMANYSQNFQGRVTITADKSTSTAYMELSSLRSEDTAVYYCARDPPPGYGDLFYYYSMDVWGQGTTVTVST
VL: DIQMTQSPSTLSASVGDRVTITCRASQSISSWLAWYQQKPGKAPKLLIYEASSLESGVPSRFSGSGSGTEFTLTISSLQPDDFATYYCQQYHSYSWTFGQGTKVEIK
B8: 5.6.c2913 (antibody, V domains shown)
VH: DVQLVESGGGLVQPGGSLRLSCVASGLTFSRDWMTWVRQAPGKGLEWVANIKQDGSEKYYLDSVKGRFTISRDNSNNALYLQMSSLRGEDTAVYYCARLHGGGFSDSDLFYYDFAMDVWGQGTTVTVSA
VL: EIVMTQSPATLSVSPGERATLSCRASQSVINNLAWYQQKPGQAPRLLIYGASTRATGIPARFSGSGSGTEFTLTISNLQSEDFAVYYCQQYNNWPPLTFGGGTQVEIK
B9: 5.6.c2954 (antibody, V domains shown)
VH: QAQLQESGPGLVKPSQTLSLTCTVSGGFSSSGGFFWSWIRQHPGKDLEWIGYIYSSGSPYYKPSLKSRVTISIDTSKNQFSLRLSSVTAADTAIYYCARGRGEMLTGYFDYWGQGKLVTVSS
VL: SYVLTQPPSVSVAPGKTASITCGGNNIGSKSVHWYQQRPGQAPVLVIYYDTDRPSGIPERFSGSNSGNTATLTISRVEAGDEADYYCQVWDSSSDPLLFGGGTKLTVL
B10: 5.6.c2886 (antibody, V domains shown)
VH: QVQLQESGPGLVKPSQTLSLTCTVSGGSISSGDYYWSWIRQHPGKGLEYIGYIYYSGSTFHNPSLKSRVTISIDTSKNQFSLKLSSVTAADTAVYYCARDSGSEIIMGAYGMDVWGQGTTVTVSS
VL: DIQMTQSPSSVSASVGDRVTITCRASQGISWLAWYQQKPGKAPKLLIYAASSLQSGVPSRFSGSGSGTDFTLTISSLQPEDFATYYCQQANSFPWTFGQGTKVEIK
B11: 5.6.c2773 (antibody, V domains shown)
VH: QVELQESGPGLVKPSGTLSLTCTVSGGSISSYHWSWIRQPPGKGLEWIAYMYYSGSTNYNPSLKSRVTTSVETSKNQLSLKVSSVTAADTAVYYCARIVGDEIFFYGLDVWGQGTTVTVSS
VL: DIQMTQSPSSVSASVGDRVTITCRASQDISILLAWYQQKPGKAPKLLIYAASSLQSGVPSRFSGSGSGTDFTLTISSLQPEDFATYYCQQANSFPWTFAQGTKVEIK
B12: 5.6.c3014 (antibody, V domains shown)
VH: QVQLVESGGGVVQPGRSLRLSCAASGFSFNSYGMHWVRQAPGKGLEWVAIIWYDGSDKYYADSVKGRFTISRDNSKNTLSLQMNSLRVEDSAVYYCARDPGHPSDLYYYYGMDVWGQGTTVTVSS
VL: B11 VL with I31Y, L32W, A50S, A91T, N92H, S93T, W96I, A99G, K103R, V104L
B13: 5.6.c2998 (antibody, V domains shown)
VH: EVQLVESGGGVVQPGGSLRLSCAASGFTFDDYAMHWVRQAPGKGLEWVSIITGDGGSRNYADSVKGRFTISRDNNKNSLYLQMNSLRSEDTALYYCAKEGGPDSSTFYYYGMDVWGQGTTVTVSS
VL: B11 VL with I29V, I31S, L32W, Q37R, K42R, K45E, T85S, Q89L, F94I, A99G
B14: 5.6.c2798 (antibody, V domains shown)
VH: QVQLQESGPGLVKPSETLSLTCTVSGGSISPDYWTWIRQPPGKGLEWIGFIYYAGGTDYNPSLKSRVTMSIDTSKKQFFLKLNSVTAADTAVYYCASGVPEDNSQILYYYYGMDVWGPGTTVTVSS
VL: QSVLTQPPSVSAAPGQKVTISCSGSSPNIGNNYVSWYQQLPGTAPKLLIYDNNKRPSGIPDRFSGSKSGTSATLGITGLQTGDEADYYCGTWDRSLSAYVFGTGTKVTVL
B15: 5.6.c2972 (antibody, V domains shown)
VH: QVQLQESGPGLVKPSQTLSLTCAVSGGSIRSDDNYWSWIRQPPGKGLEWIGYIYHRGSTYYNPSLKNRVKISVDTSKNQFSLKLSSVTAADTAVYYCARDRIQVVPDGIVHYYYGMDVWGQGTTVTVSS
VL: B14 VL with P27S, R94N, S95N, Y99W, T103G, V107L
B16: 5.6.c2995 (antibody, V domains shown)
VH: QVQLVESGGGVVQPGRSLRLSCAASGFSFSTYGMYWVRQAPGKGLEWVGVIWYDGSEKYHADFVKGRFTMSRDNSKNTLYLQMNSLRVEDTAVYYCARDLRPSTNSWYGYYYNAMDVWGQGTTVTVSS
VL: QSVLTQPPSVSAAPGQRVTISCSGNSSNIGNNFVSWYQQLPGTAPKLLIYDNNSRPSGIPDRFSGSKSGTSATLGISGLQTGDEADYYCGSWDGSLSLWVFGGGTKLTVL
B17: 5.6.c2931 (antibody, V domains shown)
VH: QLQLQESGPGLVKPSQTLSLTCTVAGGSISRSSYYWGWIRQSPGKGLEWIGSIHYSGSTHYNSSLRSRVTISVDTSKNQFSLNLTSVTAADTAVYYCVRQSSVPYFDWSSPGQIDPWGQGTLVTVSS
VL: QLVLTQSPSASASLGASVKFTCTLSSGHRSYAIAWHQQQPEKGPRYLMKINSDGSHNKGDGIPDRFSGSSSGDERYLTISSLQSEDEADYYCQTWGTGIQVFGGGTKLTVL
B18: 5.6.c2801 (antibody, V domains shown)
VH: EVQLVESGGGLVQPGGSLRLSCAASGFTFSTYWMSWVRQAPGKGLEWVANIKEDGSEKYYVDSVKGRFTISRDNGKNSLYLQMNSLRAEETAVYYCARDVPGDTVLGDAFHIWGQGTMVTVSS
VL: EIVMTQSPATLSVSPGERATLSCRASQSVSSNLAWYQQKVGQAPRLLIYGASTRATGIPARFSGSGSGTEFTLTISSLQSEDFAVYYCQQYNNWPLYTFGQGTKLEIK
B19: 5.6.c2824 (antibody, V domains shown)
VH: QVQLQESGPGLVKPSGTLSLTCAVSGGSISSNSWWSWVRQPPGKGLEWIGDMYHSGSTNYNPSLKSRVTISVDKSKNQFSLKLSSVTAADTAVYYCARARHDDSNTFLWFVYGMDVWGQGTTVTVSS
VL: DIQMTQSPSSLSASVGDRVTITCRTSQSISSYLNWYQQKPGKAPKLLIYAASSLQSGVPSRFSGSGSGTDFTLTISTLQPEDFATYFCQQSYSTPRTFGQGTKLEIK
B20: 5.6.c2957 (antibody, V domains shown)
VH: QVRMVQSGAEVKKPGSSVKVSCKTSGGTFSTYSISWVRQAPGHGLEWMGRLIPMLGTPNYAQKFQGRLTITADRSTSTAYMELSSLSSEDTAVYYCARDLGTVLTPGDSWGQGTLVTVSS
VL: DIQMTQSPSSLSASVGDRVTITCRASQGISNYLAWFQQKPGEAPKSLIYAASSLQSGVPSKFSGSGSGTDFTLTISNLQPEDFATYYCQQYNSYPLTFGGGTKVEIK

Key:
[1] = biological target: EBOV GP ectodomain residues 1-636 (GPec) (Zaire ebolavirus, strain  …, UniProt Q05320)
[2] = biological target: T1, thermolysin-cleaved EBOV GP on …

Row | Binder | binding result [1] | binding result [2]
1 | B1 | binds | binds
2 | B2 | binds | binds
3 | B3 | binds | binds
4 | B4 | binds | binds
5 | B5 | binds | binds
6 | B6 | binds | binds
7 | B7 | binds | binds
8 | B8 | binds | binds
9 | B9 | binds | binds
10 | B10 | binds | binds
11 | B11 | binds | binds
12 | B12 | binds | binds
13 | B13 | binds | binds
14 | B14 | binds | binds
15 | B15 | binds | binds
16 | B16 | binds | binds
17 | B17 | binds | binds
18 | B18 | binds | binds
19 | B19 | binds | binds
20 | B20 | binds | binds
